Results reported in patent publication WO2010028797A1 (dated 2010).

Target: human CCR5 (human, UniProt P51681 1-352)
Assay: cell-based or functional assay

human CCR5, sequence (P51681 whole entry): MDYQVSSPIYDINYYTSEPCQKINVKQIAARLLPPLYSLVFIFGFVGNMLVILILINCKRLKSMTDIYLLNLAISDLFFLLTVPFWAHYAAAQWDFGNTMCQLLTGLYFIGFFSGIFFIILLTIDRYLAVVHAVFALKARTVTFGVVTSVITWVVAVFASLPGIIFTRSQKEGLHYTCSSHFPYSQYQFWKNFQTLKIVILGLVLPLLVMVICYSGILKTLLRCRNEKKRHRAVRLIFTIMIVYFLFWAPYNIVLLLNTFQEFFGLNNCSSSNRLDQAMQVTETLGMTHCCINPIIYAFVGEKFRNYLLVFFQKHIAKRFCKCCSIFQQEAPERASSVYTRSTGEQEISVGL

B1: BN-1000 (antibody, V domains shown)
VH: QVQLKQSGPGLVRPSQSLSITCTVSGFPLGIFGVHWVRQSPGKGLEWLGVIWKGGNTDYNAAFMSRLRITKDNSKSQVFFRMNSLQTDDTAIYYCAKVNLADAMDYWGQGTSVIVSS
VL: DIQMTQSPASLSASVGETVTITCRASGNIHGYLAWFQQKQGKSPQLLVYNTKTLAEGVPSRFSGSGSGTQFSLKINSLQPEDFGNYYCQHHYDLPRTFGGGTKLEIK
IC50, antiviral assay in PBMC (HIV-1 NLBaL, p24 ELISA): 1.08 nM
